Laboratory results published in PMC5916551.

Molecular target: Transforming growth factor β1 (TGFβ1) (human) (UniProt P01137)
Test: SPR

UniProt P01137, sequence (P01137 279-390): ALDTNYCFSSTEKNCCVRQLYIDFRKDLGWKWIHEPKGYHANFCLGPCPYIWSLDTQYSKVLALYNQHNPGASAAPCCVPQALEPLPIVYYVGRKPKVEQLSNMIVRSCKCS

Substance: Metelimumab (CAT192 IgG4) (antibody)
- Kd: 139 nM
